The record followed here is patent US20230365703A1.

Test [1] addresses GPC3 on liver cancer cells (HepG2, HuH-7) (UniProt P51654). Description: flow cytometry on HepG2 cells, Alexa Fluor 488 anti-human IgG; fit value of the flat control curve; unit inferred, unit taken from the axis Con.(nM).
The target in test [2] is IL12 receptors on H_IL12 Reporter 293 cells (UniProt P42701). Put plainly: cell-based or functional assay.
Test [3] concerns the target CD47 on CD47-transfected CHO-K1 cells (Homo sapiens (Human)) (UniProt Q08722). Put plainly: flow cytometry on CD47-transfected CHO-K1 cells (CD38-/CD47+), anti-human IgG-FITC detection.
Test [4] concerns the target human CD47-Fc chimeric protein (human) (UniProt Q08722). Put plainly: SPR (Biacore T200), human CD47-Fc captured on anti-human IgG (Fc) CM5 chip, analyte 50 nM, bivalent analyte model.

Sequence of IL12 receptors on H_IL12 Reporter 293 cells (Q99665 24-862 limits assumed, chain 2 of 2, other chains not shown): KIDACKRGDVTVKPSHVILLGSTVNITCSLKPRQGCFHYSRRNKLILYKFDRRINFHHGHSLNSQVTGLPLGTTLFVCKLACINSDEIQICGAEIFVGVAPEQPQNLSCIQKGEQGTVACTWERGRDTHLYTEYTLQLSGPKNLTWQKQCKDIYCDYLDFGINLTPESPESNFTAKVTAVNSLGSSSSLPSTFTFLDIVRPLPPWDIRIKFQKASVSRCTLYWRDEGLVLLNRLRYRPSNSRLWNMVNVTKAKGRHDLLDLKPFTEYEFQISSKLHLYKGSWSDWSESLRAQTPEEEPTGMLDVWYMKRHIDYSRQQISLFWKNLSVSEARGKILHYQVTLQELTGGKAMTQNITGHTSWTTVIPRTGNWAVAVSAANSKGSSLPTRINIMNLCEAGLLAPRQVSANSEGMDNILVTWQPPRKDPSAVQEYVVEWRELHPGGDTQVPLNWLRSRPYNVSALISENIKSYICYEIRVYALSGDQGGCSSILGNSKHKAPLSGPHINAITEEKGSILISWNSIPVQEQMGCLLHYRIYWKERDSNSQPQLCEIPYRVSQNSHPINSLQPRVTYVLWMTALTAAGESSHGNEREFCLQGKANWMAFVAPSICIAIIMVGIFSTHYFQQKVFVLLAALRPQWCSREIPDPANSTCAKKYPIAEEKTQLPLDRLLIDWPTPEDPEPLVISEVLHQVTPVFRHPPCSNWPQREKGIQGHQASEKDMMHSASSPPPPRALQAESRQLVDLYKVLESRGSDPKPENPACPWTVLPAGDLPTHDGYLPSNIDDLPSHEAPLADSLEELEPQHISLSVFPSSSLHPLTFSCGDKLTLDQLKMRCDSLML

“Human IgG1 homotype control (Isotype) (antibody)” displayed an EC50 in test [1] of 3.4 nM. This counts as single-digit nanomolar.
Consider “IL12A and IL12B complex (from UniProt P29459 23-219; P29460 24-328) (ligand)”, for which the EC50 on H IL12 Reporter 293 cells (One-Glo signal; called binding affinity by the filing) in test [2] amounted to 0.06 nM.
In test [3], TTI-621 (Fc fusion) displayed an EC50 (read off the curve) of 0.8 nM. For the same substance, the Kd in test [4] came out at 37.3 nM.
